# T1: His-Vasa 200–661 (Drosophila, UniProt P09052 200-661)
# T1 construct: Vasa, Drosophila DEAD-box RNA helicase, helicase core with the C-terminal extension, residues 200-661; Construct details are in the Supplemental Material; also called His-tagged Vasa 200–661; wild-type Vasa helicase core; source: E. coli (Rosetta 2), purified
# T1 sequence (looked up): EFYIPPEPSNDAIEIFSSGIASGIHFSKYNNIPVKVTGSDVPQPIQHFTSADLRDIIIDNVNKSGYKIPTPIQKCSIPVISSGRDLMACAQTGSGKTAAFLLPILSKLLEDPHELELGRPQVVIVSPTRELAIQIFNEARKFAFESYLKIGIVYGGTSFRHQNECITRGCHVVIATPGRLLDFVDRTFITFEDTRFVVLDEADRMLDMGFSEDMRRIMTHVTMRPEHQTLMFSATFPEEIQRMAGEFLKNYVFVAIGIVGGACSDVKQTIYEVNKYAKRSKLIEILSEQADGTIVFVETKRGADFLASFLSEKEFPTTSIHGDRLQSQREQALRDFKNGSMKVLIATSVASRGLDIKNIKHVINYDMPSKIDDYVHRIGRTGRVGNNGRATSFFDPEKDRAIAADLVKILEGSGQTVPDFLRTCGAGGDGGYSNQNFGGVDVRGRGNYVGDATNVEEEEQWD
# T2: Vasa 200–661 (Drosophila, UniProt P09052 200-661)
# T2 construct: Vasa, Drosophila DEAD-box RNA helicase, helicase core with the C-terminal extension, residues 200-661; It may be the same preparation as His-Vasa 200–661; Construct details are in the Supplemental Material; also called Vasa helicase core; source: E. coli (Rosetta 2), purified
# T2 sequence (looked up): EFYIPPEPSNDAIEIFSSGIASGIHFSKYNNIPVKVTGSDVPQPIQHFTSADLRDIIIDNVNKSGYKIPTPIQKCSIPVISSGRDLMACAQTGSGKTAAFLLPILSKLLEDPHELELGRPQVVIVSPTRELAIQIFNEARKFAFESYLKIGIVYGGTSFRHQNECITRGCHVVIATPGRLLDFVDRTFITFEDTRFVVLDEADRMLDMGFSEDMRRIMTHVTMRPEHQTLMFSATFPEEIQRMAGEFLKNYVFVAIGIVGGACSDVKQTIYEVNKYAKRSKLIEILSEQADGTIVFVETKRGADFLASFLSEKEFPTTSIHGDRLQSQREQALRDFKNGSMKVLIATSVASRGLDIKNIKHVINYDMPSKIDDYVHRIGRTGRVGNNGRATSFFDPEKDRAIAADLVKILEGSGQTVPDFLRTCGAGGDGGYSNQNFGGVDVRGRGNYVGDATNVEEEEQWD
# T3: Vasa 463–623 (Drosophila, UniProt P09052 463-623)
# T3 construct: Vasa, Drosophila, C-terminal RecA-like domain without the C-terminal extension, residues 463-623; also called Vasa-CTD lacking the C-terminal extension; Vasa C-terminal RecA-like domain; source: E. coli (Rosetta 2), purified
# T3 sequence (looked up): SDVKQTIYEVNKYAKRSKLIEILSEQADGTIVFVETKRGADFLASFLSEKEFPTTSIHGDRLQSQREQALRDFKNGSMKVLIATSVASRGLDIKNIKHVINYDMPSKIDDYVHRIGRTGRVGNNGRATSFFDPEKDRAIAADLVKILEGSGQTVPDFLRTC
# T4: Vasa 463–661 (Drosophila, UniProt P09052 463-661)
# T4 construct: Vasa, Drosophila, C-terminal RecA-like domain with the C-terminal extension, residues 463-661; Details are in the Supplemental Material; also called Vasa-CTD; source: E. coli (Rosetta 2), purified
# T4 sequence (looked up): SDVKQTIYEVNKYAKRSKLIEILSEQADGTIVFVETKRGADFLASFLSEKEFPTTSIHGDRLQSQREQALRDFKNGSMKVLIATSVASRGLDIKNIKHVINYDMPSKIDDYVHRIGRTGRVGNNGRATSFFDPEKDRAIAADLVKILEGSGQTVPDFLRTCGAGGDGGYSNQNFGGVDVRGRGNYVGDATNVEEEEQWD
# B1: GST-Oskar LOTUS (amino acids 139–240) (domain or fragment, Drosophila, UniProt P25158 139-240, looked up)
# chain: MTIIESNYISVREEYPDIDSEVRAILLSHAQNGITISSIKSEYRKLTGNPFPLHDNVTDFLLTIPNVTAECSESGKRIFNLKASLKNGHLLDMVLNQKERTS
# notes: Oskar, Drosophila, LOTUS (eLOTUS) domain with its C-terminal extension, residues 139-240; residue numbers are those of the long isoform; Construct details are in the Supplemental Material; also called Oskar GST-LOTUS; GST fusion of the LOTUS domain of Oskar; source: E. coli (Rosetta 2), purified
# B2: Oskar 139–240 (LOTUS domain) (domain or fragment, Drosophila, UniProt P25158 139-240, looked up)
# chain: MTIIESNYISVREEYPDIDSEVRAILLSHAQNGITISSIKSEYRKLTGNPFPLHDNVTDFLLTIPNVTAECSESGKRIFNLKASLKNGHLLDMVLNQKERTS
# notes: Oskar, Drosophila, LOTUS (eLOTUS) domain with its C-terminal extension, residues 139-240; residue numbers are those of the long isoform; This is a dimer in the crystal; No tag is stated for the crystallised protein; also called LOTUS domain of Oskar (amino acids 139–240); eLOTUS; source: E. coli (Rosetta 2), purified
# B3: Oskar LOTUS domain (amino acids 144–240) (domain or fragment, Drosophila, UniProt P25158 144-240, looked up)
# chain: SNYISVREEYPDIDSEVRAILLSHAQNGITISSIKSEYRKLTGNPFPLHDNVTDFLLTIPNVTAECSESGKRIFNLKASLKNGHLLDMVLNQKERTS
# notes: Oskar, Drosophila, LOTUS domain, residues 144-240; residue numbers are those of the long isoform; The legend notes that the LOTUS domain of Oskar forms dimers (Jeske et al. 2015); The ITC curve was fitted with the monomer concentration; Details are in the Supplemental Material; also called Osk 144–240; Oskar 144–240 (LOTUS); source: E. coli (Rosetta 2), purified
# Assays:
# His-Vasa 200–661 = target: T1, His-Vasa 200–661; experiment: pull-down; GST pull-down with purified recombinant proteins; GST or GST fusion as bait (8.75-10 µM in the legends), Vasa as prey (17.5-20 µM in the legends); samples on an SDS gel stained with Coomassie brilliant blue; details: both partners purified
# Vasa 200–661 = target: T2, Vasa 200–661; experiment: as above; details: both partners purified
# Vasa 463–623 = target: T3, Vasa 463–623; experiment: crystal structure; Oskar 139–240 and Vasa 463–623 mixed in a 2:1 molar ratio; hanging drop vapor diffusion at 18°C; 1.4 Å; molecular replacement; details: both partners purified
# [1] = target: the molecule itself; experiment: as above
# Vasa 463–661 = target: T4, Vasa 463–661; experiment: ITC; Vasa 463–661 titrated to the Oskar LOTUS domain (144–240); 25°C; VP-ITC; 20 mM Tris pH 7.5, 150 mM sodium chloride; curve fitted with the LOTUS monomer concentration; details: both partners purified
binder,measurement,setting,value
B1,binding result,His-Vasa 200–661,binds
same,binding result,Vasa 200–661,binds
B2,binding result,Vasa 463–623,binds
same,stoichiometry N,[1],2
B3,Kd,Vasa 463–661,~10 µM
